# Experimental data: the supplement of paper PMC9112550, “Optimization of the antimicrobial peptide Bac7 by deep mutational scanning” (BMC Biology, 2022)
# Test system: Escherichia coli TOP10
# Experiment: shrunken log2 fold change of peptide-encoding DNA abundance (4.5 h post-induction vs induction); higher = less antimicrobial activity (less host growth inhibition)
# Conditions: time post-induction: 4.5 h; library: site-saturation at positions 5, 18, 19, 20
# 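Note: peptides expressed intracellularly from a pBAD plasmid library in pooled LB shake-flask culture, induced with 0.3% L-arabinose, DNA abundance read by NGS, three biological replicates, DESeq2 with apeglm shrinkage.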
row,Sequence,shrunken log2 fold change
1,RRIRKRPPRLPRPRPRPEYTPRP,0.0243
2,RRIRERPPRLPRPRPRPLTDPRP,-0.394
3,RRIRFRPPRLPRPRPRPNVFPRP,-0.108
4,RRIRKRPPRLPRPRPRPRNYPRP,0.374
5,RRIRHRPPRLPRPRPRPDGIPRP,-0.0529
6,RRIRDRPPRLPRPRPRPVHLPRP,-0.23
7,RRIRPRPPRLPRPRPRPQFGPRP,-0.0476
8,RRIRARPPRLPRPRPRPWAEPRP,0.264
9,RRIRARPPRLPRPRPRPNDEPRP,0.361
10,RRIRHRPPRLPRPRPRPNHTPRP,-1.04
11,RRIRSRPPRLPRPRPRPEDVPRP,0.183
12,RRIRSRPPRLPRPRPRPWHNPRP,-0.00544
13,RRIRWRPPRLPRPRPRPDHRPRP,-0.0843
14,RRIRVRPPRLPRPRPRPLVVPRP,-0.21
15,RRIRKRPPRLPRPRPRPIQIPRP,-0.14
16,RRIRHRPPRLPRPRPRPNFHPRP,-0.407
17,RRIRMRPPRLPRPRPRPPEYPRP,-0.035
18,RRIRVRPPRLPRPRPRPPVNPRP,0.159
19,RRIRERPPRLPRPRPRPTPCPRP,0.0922
20,RRIRKRPPRLPRPRPRPPCRPRP,0.264
21,RRIRSRPPRLPRPRPRPKFTPRP,-0.436
22,RRIRTRPPRLPRPRPRPKHVPRP,-0.658
23,RRIRKRPPRLPRPRPRPKVCPRP,-0.0666
24,RRIRPRPPRLPRPRPRPYSIPRP,-0.0708
25,RRIRTRPPRLPRPRPRPCATPRP,-0.0683

row,Sequence,shrunken log2 fold change
1,RRIRSRPPRLPRPRPRPNSEPRP,-0.262
2,RRIRPRPPRLPRPRPRPCSAPRP,0.199
3,RRIRKRPPRLPRPRPRPAWHPRP,0.378
4,RRIRERPPRLPRPRPRPWMDPRP,-0.101
5,RRIRLRPPRLPRPRPRPYNHPRP,-0.669
6,RRIRDRPPRLPRPRPRPFCSPRP,0.217
7,RRIRGRPPRLPRPRPRPHMYPRP,-0.0997
8,RRIRERPPRLPRPRPRPHQDPRP,-0.0312
9,RRIRMRPPRLPRPRPRPPFFPRP,0.528
10,RRIRYRPPRLPRPRPRPKDDPRP,-0.153
11,RRIRSRPPRLPRPRPRPQMFPRP,-0.0871
12,RRIRMRPPRLPRPRPRPAWNPRP,0.43
13,RRIRYRPPRLPRPRPRPPVSPRP,-0.378
14,RRIRWRPPRLPRPRPRPSHWPRP,0.3
15,RRIRRRPPRLPRPRPRPGGRPRP,0.295
16,RRIRHRPPRLPRPRPRPHFWPRP,-0.0607
17,RRIRVRPPRLPRPRPRPTARPRP,0.293
18,RRIRKRPPRLPRPRPRPEGYPRP,0.0317
19,RRIRMRPPRLPRPRPRPVCYPRP,-0.21
20,RRIRARPPRLPRPRPRPGRIPRP,0.148
21,RRIRHRPPRLPRPRPRPNIYPRP,-0.11
22,RRIRQRPPRLPRPRPRPFGLPRP,-0.131
23,RRIRARPPRLPRPRPRPTLCPRP,0.392
24,RRIRNRPPRLPRPRPRPNPNPRP,0.0656
25,RRIRFRPPRLPRPRPRPWIWPRP,0.0425

row,Sequence,shrunken log2 fold change
1,RRIRFRPPRLPRPRPRPVIRPRP,-0.68
2,RRIRYRPPRLPRPRPRPSDLPRP,-1.92
3,RRIRTRPPRLPRPRPRPCFRPRP,-0.0887
4,RRIRIRPPRLPRPRPRPCCAPRP,-0.172
5,RRIRHRPPRLPRPRPRPVRPPRP,0.365
6,RRIRKRPPRLPRPRPRPVWPPRP,0.699
7,RRIRQRPPRLPRPRPRPMMPPRP,0.0665
8,RRIRDRPPRLPRPRPRPKADPRP,-0.0266
9,RRIRRRPPRLPRPRPRPVKNPRP,0.148
10,RRIRVRPPRLPRPRPRPCHGPRP,0.000197
11,RRIRDRPPRLPRPRPRPYLSPRP,-0.102
12,RRIRGRPPRLPRPRPRPDKMPRP,0.261
13,RRIRARPPRLPRPRPRPDCYPRP,0.283
14,RRIRYRPPRLPRPRPRPIVGPRP,0.1
15,RRIRPRPPRLPRPRPRPFVPPRP,0.0581
16,RRIRSRPPRLPRPRPRPYSTPRP,-1.05
17,RRIRSRPPRLPRPRPRPWYQPRP,-0.314
18,RRIRSRPPRLPRPRPRPHEHPRP,0.113
19,RRIRGRPPRLPRPRPRPYMEPRP,-0.164
20,RRIRPRPPRLPRPRPRPHLYPRP,-0.192
21,RRIRGRPPRLPRPRPRPADQPRP,0.887
22,RRIRGRPPRLPRPRPRPHILPRP,-0.198
23,RRIRERPPRLPRPRPRPMNMPRP,-0.176
24,RRIRNRPPRLPRPRPRPSMNPRP,-0.578
25,RRIRYRPPRLPRPRPRPAAFPRP,-0.757

row,Sequence,shrunken log2 fold change
1,RRIRGRPPRLPRPRPRPASDPRP,0.987
2,RRIRYRPPRLPRPRPRPDNHPRP,-0.135
3,RRIRGRPPRLPRPRPRPLVNPRP,0.4
4,RRIRWRPPRLPRPRPRPAYNPRP,-0.389
5,RRIRARPPRLPRPRPRPMNPPRP,-0.0638
6,RRIRQRPPRLPRPRPRPMNQPRP,-0.437
7,RRIRQRPPRLPRPRPRPAYEPRP,-0.00926
8,RRIRSRPPRLPRPRPRPRDDPRP,0.0905
9,RRIRIRPPRLPRPRPRPFIQPRP,-0.551
10,RRIRWRPPRLPRPRPRPMTNPRP,-0.0531
11,RRIRLRPPRLPRPRPRPREKPRP,0.15
12,RRIRERPPRLPRPRPRPCNLPRP,-0.904
13,RRIRERPPRLPRPRPRPDWRPRP,-0.0634
14,RRIRRRPPRLPRPRPRPPGDPRP,1.06
15,RRIRMRPPRLPRPRPRPRKDPRP,0.61
16,RRIRVRPPRLPRPRPRPMFTPRP,-0.0798
17,RRIRLRPPRLPRPRPRPMAIPRP,0.11
18,RRIRGRPPRLPRPRPRPMTYPRP,0.274
19,RRIRERPPRLPRPRPRPIIYPRP,-0.412
20,RRIRSRPPRLPRPRPRPKPHPRP,0.213
21,RRIRSRPPRLPRPRPRPGETPRP,0.488
22,RRIRGRPPRLPRPRPRPHGYPRP,-0.0362
23,RRIRQRPPRLPRPRPRPSEHPRP,-0.195
24,RRIRQRPPRLPRPRPRPGLMPRP,-0.0533
25,RRIRFRPPRLPRPRPRPVFYPRP,-0.536

row,Sequence,shrunken log2 fold change
1,RRIRCRPPRLPRPRPRPDRRPRP,0.0327
2,RRIRFRPPRLPRPRPRPICPPRP,-0.208
3,RRIRCRPPRLPRPRPRPIIKPRP,-1.01
4,RRIRHRPPRLPRPRPRPDGTPRP,-0.0362
5,RRIRLRPPRLPRPRPRPNNGPRP,0.0736
6,RRIRHRPPRLPRPRPRPDDIPRP,-0.0131
7,RRIRSRPPRLPRPRPRPVNRPRP,-0.107
8,RRIRMRPPRLPRPRPRPDERPRP,1.11
9,RRIRARPPRLPRPRPRPTDDPRP,0.332
10,RRIRSRPPRLPRPRPRPVQLPRP,0.348
11,RRIRCRPPRLPRPRPRPCYNPRP,-0.837
12,RRIRWRPPRLPRPRPRPDIWPRP,0.642
13,RRIRERPPRLPRPRPRPFNHPRP,-1.01
14,RRIRLRPPRLPRPRPRPNEPPRP,-0.213
15,RRIRTRPPRLPRPRPRPDLSPRP,0.057
16,RRIRPRPPRLPRPRPRPCRWPRP,0.0987
17,RRIRFRPPRLPRPRPRPNHMPRP,-0.567
18,RRIRHRPPRLPRPRPRPTTTPRP,-0.0186
19,RRIRMRPPRLPRPRPRPRMMPRP,0.476
20,RRIRYRPPRLPRPRPRPCTWPRP,-0.303
21,RRIRSRPPRLPRPRPRPRYYPRP,-0.554
22,RRIRIRPPRLPRPRPRPQNHPRP,-0.871
23,RRIRLRPPRLPRPRPRPRYPPRP,0.318
24,RRIRPRPPRLPRPRPRPMHHPRP,-0.194
25,RRIRNRPPRLPRPRPRPTHIPRP,-0.0851

row,Sequence,shrunken log2 fold change
1,RRIRARPPRLPRPRPRPFGQPRP,-0.0155
2,RRIRSRPPRLPRPRPRPESYPRP,1.29
3,RRIRTRPPRLPRPRPRPNKQPRP,-0.207
4,RRIRARPPRLPRPRPRPDHRPRP,0.0154
5,RRIRVRPPRLPRPRPRPGVMPRP,-0.261
6,RRIRLRPPRLPRPRPRPTLTPRP,0.26
7,RRIRWRPPRLPRPRPRPAFSPRP,0.383
8,RRIRIRPPRLPRPRPRPIVTPRP,-0.429
9,RRIRARPPRLPRPRPRPGHNPRP,-0.0862
10,RRIRYRPPRLPRPRPRPEAEPRP,0.137
11,RRIRARPPRLPRPRPRPPERPRP,0.703
12,RRIRQRPPRLPRPRPRPGLAPRP,0.197
13,RRIRRRPPRLPRPRPRPYSYPRP,-0.0587
14,RRIRKRPPRLPRPRPRPFCQPRP,0.212
15,RRIRFRPPRLPRPRPRPYYWPRP,-0.485
16,RRIRSRPPRLPRPRPRPDRIPRP,-0.249
17,RRIRKRPPRLPRPRPRPQEIPRP,0.0636
18,RRIRTRPPRLPRPRPRPYCDPRP,-0.512
19,RRIRWRPPRLPRPRPRPLLLPRP,0.152
20,RRIRSRPPRLPRPRPRPRKNPRP,-0.0439
21,RRIRRRPPRLPRPRPRPRSAPRP,0.532
22,RRIRMRPPRLPRPRPRPFIQPRP,0.0137
23,RRIRFRPPRLPRPRPRPHITPRP,-0.734
24,RRIRPRPPRLPRPRPRPCAVPRP,-0.418
25,RRIRRRPPRLPRPRPRPKIIPRP,-0.364
